Source: the nanobody polyreactivity screen of Harvey et al. (2022)

Test: yeast display, Sf9 membrane polyspecificity reagent, FACS + sequencing; frameworks hold sequencing errors
Procedure, shortened: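 Sorting gates, low and high (top ~1%), were placed on anti-HA fluorescence to track expression and on streptavidin fluorescence to track reagent binding. A clone's polyreactivity label is taken from the gate it came out of. The reagent was 10% biotinylated, detergent-solubilized Sf9 membrane, applied for 1 hour at 4 °C to galactose-induced yeast display cells.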

| Sequence | polyreactivity (PSR sort gate) |
| --- | --- |
| QVQLVESGGGLVQAGGSLRLSCAASGLTLGSYALGWYRQAPGKERELVAAISRRSGRTYYADSVKGRFTISRDNAKNTVYLQMNSLKPEDTAVYYCNRGYTAQVYTEFDYWGQGTQVTVSS | low polyreactivity |
| QVQIVESGGAFVQAGGSLRLRCEASGSTFVNKDMGWSRPAPGKEREFVAAIRNTGGRTYYADSVKGRFTISRDNAKNSVYLQMNSLKPEDTAVYYCAAVSRVRTLWRMDYWGQGTQVTVSS | high polyreactivity |
| QVQLVESGGGLVQAGGSLRLSCAASGFTFRAYVMGWDRQAPGKERELVASISKRGGNTYYADSVKGRFTISRDNAKNTVYLQMNSLKPEDTAVYYCAVDFFGDRGDYDYWGQGTQVTVSS | high polyreactivity |
| QVQLVESGGGLVQAGGSLRLSCAASGRIIGYYAMGWYRQAPGKERELVAGIDWSGGNTYYADSVKGRFTISRDNAKNTVYLQMNSLKPEDTAVYYCNTEGGRDTAWYDYWGQGTQVTVSS | low polyreactivity |
| QVQLVESGGGIVQAGGSLRLSCAASGSTFGAYPMAWYRQAPGTERELVAVITRTGSTYADSVKGRFTISRDNAKNTVYLQMNSLKPVDTAVYYCNADYYVSRLYDYQVYSYRYDYWGQGTKVTVSS | high polyreactivity |
| QVQLEESGAGLVQAGGSLRLTCAASGSTFYSNVMGWYRQAPGKEREFVAGISGSGGSTYYADSVKGRFTISRDNGNISVYLLINSLKPEDPAVYYCKAVRYPRLLYYWGQGTQVNVSS | high polyreactivity |
| QVQLVESGGGLVQAGGSLRLSCAASGIIFWRYAMGWYRQAPGKERELDAGITSRGGSTYYADSVKGRFTISRDNAKNTVYLQMNSLKPEDTAVYYCNAPRGSRRSYRRTEYYYWGQGTQVTVSS | high polyreactivity |
| QVQLVESGGGLVQAGGSLRLSCAASGSNFRYYAMGWYRQAPGTERELVADISSGGSTYYADSVKGRFTISRDNAKNTVYLQMNRLKPEDTAVYYCKADYYAYPWTNDYWGQGTQVTVSS | high polyreactivity |
| QVQHVESGGGLVQAGGSLRLSCAASGSTFLYYAMGWSRQAPGKERELVARITTRVGRTYYADSVKGRFTISRDNAKNTVYLQMNSLKPEDTAVYYCAAYPDYSYYYWGQGTQVTVSS | high polyreactivity |
| QVQLVESGGGLVQAGGSLRLSCAASGRIFWYYAMGWYRQAPGKERELVAAINSGGNTNYADSVKGRFTISRDNAKNTVYLQMNSLKPEDTAVYYCNAGRRYDTYPGDYWGQGSQVTVSS | high polyreactivity |
| QVQLVESGGGLVQAGGSLRLSCAASGFIFKKYAMGWYRQAPGKERELVAAISGSSTRTYYADSVKGRFTISRDNAKNTVYLQMNSLKPEDTAVYYCAAYYGVGFDYWGQGTQVTVSS | high polyreactivity |
| QVQLVESGGGLVQAGGSLRLSCAASGSTFGYYGMGWYRQAPGKERELVASIDSRGDSTYADSVKGRFTISRDNAKNTVYLQMNSLKPEDTAVYYCAADSWYSWFDSWGQGTQVTVSS | low polyreactivity |
| QVQLVESGGGLVQAGGSLRLSCASSGYIFAGNAMGWYRQAPGKERELVAVITRGGRTYYADSVKGRFTISRDNAKNTVYLQMNSLKPEDTAVYYCAARYPYRGWGQGTQVTVSS | high polyreactivity |
| QVQLVESRGGLVQAGGSLRLSCAASGSTFNYYTMGWNRQAPGKERELVATITSGGTTYYADSVKGRFTISRDNAKNTVYLQMNSLKPEDTAVYYCAVQLRRHVDMDYWGQGTQVTVSS | high polyreactivity |
| QVQLVESGGGLVQAGGSLRLSCAASGSTFYPYAMGWYRQAPGKERELVAAISSGGSTSYADSVKGRFTISRDNAKNTVYLQMNSLKPEDTAVYYCNASSPGAVPVYDYDYWGQGTQVTVSS | low polyreactivity |
| QVQLVESGGGLVQAGGSLRLSCAASGSIFVHYAMGWYRQAPGKERELVARISWRGNTYYADSVKGRFTISRDNAKNTVYLQMNSLKPEDTAVYYCAKDVRRSLVIWDVVYPHGYWGQGTQVTVSS | low polyreactivity |
| QVQLVESGAGLVQAGGSLRLSCAASVRIFDSYAMGWSRQAPGKERELVAAITGSGGRTYYAESVKGRFTISRDNAKNTVYLQMNSQKPEYTAVYYCARALGQRRYDYWGQGTHVTVSS | high polyreactivity |
| QVQLVESGGGLVQAGGSLRLSCAASGGIFPPNVMGWYRPAPGKETELVAANSRSGGSTYYADSVKGRFTISRDNAKNTVYLQMNSLTAEDTAVYYCAAANTQRGFRYDYWGQGTQVTVSS | high polyreactivity |
| QVQLVESGGGLVQAGGSLRLSCAASGIILSPYAMGWYRQAPGKERELVAAISRSGGSTYYADSVKGRFTISRDNAKNTVYLQMNSLKPEDTAVYYCAAEYYGYWEYDYWGQGTQVTVSS | high polyreactivity |
| QLQLVESGGGLVQAGGSLRLSCAASGFTFSDYARGWYRQAPGKERELVAAINTSGGSTYYADSVKGRFTISRDNAKNTVYLQMNSLKPEDTAVYYCAAKYASLDRRRRKYDYWGQGTQVTVSS | high polyreactivity |
| QLQLVETGGGLVQAGGSLRLSCAASGFTLYSYAMGWYRQDPGKEREFVADGSTYYADSVKGRFTISRDNAKNTVYLQINSLKPEDTAVYYCAADPWIYVQSYGYWGQGTQVTVSS | low polyreactivity |
| QVQLVESGGGLVQAGGSHRFRCAASGSTIVSDAMGLYRHAPGKERELDATISWRGGSTYYADSVKGRFTISRDNAKNTVYLQMNSLKPEDTAVYDCAADLWHSQYYYGYEYWGQGTQVNVSS | low polyreactivity |
